The test system of one assay is T1, RadA (RadAFL).
T1 construct: full length, 453 residues, hexamer; recombinant in E. coli; ATPase work with native untagged protein (pET21d); crystal with SeMet RadAFL (pET-radA or StrepII-tagged IBA13-radA), C4 domain (1-35) unresolved
Kind of assay: coupled spectrophotometric ATPase assay (pyruvate kinase / lactate dehydrogenase, NADH at […] nm), Michaelis-Menten fit. The conditions noted are these: ATP 0-2 mM, 600 nM RadA, 2 uM nt phiX174 ssDNA, 4 mM Mg(OAc)2, pH 7.5, 37 C. The assay is classed as biochemical, Streptococcus pneumoniae.

For assay [1], the target named is P domain of pneumococcal RadA (RadAP) (S. pneumoniae). Put plainly: SEC-MALS; samples at 2 mg/ml injected on Superdex200 Increase coupled to MALS and refractive index detection, 0.4 ml/min, 298 K; hexamer independent of nucleotide and Mg2+.
Assay [2] addresses RadA K101A, purified without tag (S. pneumoniae). Kind of assay: SEC; gel filtration of purified untagged RadA proteins on Superdex 200 increase 10/300 in 25 mM Tris pH 8, 200 mM NaCl, 20% glycerol; calibrated with 43, 158 and 440 kDa standards. In general terms: Size exclusion chromatography separates by hydrodynamic size, large species first.
Assay [3] concerns the target RadA K251A, purified without tag (S. pneumoniae). Described as above.
Assay [4] addresses RadA R253A, purified without tag (S. pneumoniae). Described as above.
In assay [5] the target is full-length pneumococcal RadA (RadAFL), preparation for structural analysis (S. pneumoniae). Put plainly: SEC-MALS; samples at 2 mg/ml injected on Superdex200 Increase coupled to MALS and refractive index detection, 0.4 ml/min, 298 K; hexamer independent of nucleotide and Mg2+.

For `Nc1ncnc2c1ncn2[C@@H]1O[C@H](COP(=O)(O)OP(=O)(O)OP(=O)(O)O)[C@@H](O)[C@H]1O` [ATP], the Km in the assay on RadA (RadAFL) was 150 µM.

On to “P domain of pneumococcal RadA (RadAP) (domain or fragment)”, for which the stoichiometry N in assay [1] is 6.

“RadA K101A, purified without tag (enzyme)” yielded a stoichiometry N in assay [2] of 6.

With “RadA K251A, purified without tag (enzyme)”, in assay [3], the stoichiometry N stood at 6.

On to “RadA R253A, purified without tag (enzyme)”, for which, in assay [4], the stoichiometry N was determined as 6.

In turn, “full-length pneumococcal RadA (RadAFL), preparation for structural analysis (enzyme)” gave a stoichiometry N in assay [5] of 6.

The Km is the substrate concentration at which the rate is half of its maximum. Broadly, the stoichiometry N is a count of units in the complex or per binding partner.
